No end group written: not given here. Me3 = trimethyl; Me2 = dimethyl

The target in assay [1] is T1, PHD1 D343A mutant (human, UniProt P41229-1 318-378, D343A).
T1 sequence: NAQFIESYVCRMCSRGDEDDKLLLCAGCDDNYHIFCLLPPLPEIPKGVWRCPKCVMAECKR
The experiment in a line: NMR; lower limit, from I361.

The target of assay [2] is T2, PHD1 (KDM5C residues 318–378) (human, UniProt P41229-1 318-378).
T2 chain: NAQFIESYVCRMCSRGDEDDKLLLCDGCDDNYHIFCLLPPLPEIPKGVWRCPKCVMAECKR
Nature of the assay: NMR; from D343.

Assay [3] has as its target T2, PHD1 (KDM5C residues 318–378). Nature of the assay: NMR; lower limit, from I361.
The target is the same in assay [4]. Nature of the assay: NMR; from I361.
Assay [5] addresses T3, unmodified 147 bp mononucleosome (human, UniProt P68431 1-136). Nature of the assay: apparent Kd, EMSA, lower limit.
For assay [6], the target named is T4, unmodified 187 bp mononucleosome (human, UniProt P68431 1-136). The experiment in a line: apparent, EMSA, lower limit.
For assay [7], the target named is T3, unmodified 147 bp mononucleosome. The experiment in a line: apparent, EMSA, lower limit.
Assay [8] has the same target. The experiment in a line: apparent Kd, EMSA, lower limit. The source holds these as a separate data set.
The target of assay [9] is T5, Avitag-PHD1 (human, UniProt P41229-1 318-378, not fully specified; biotin on the Avitag (BirA co-expression)).
T5 chain: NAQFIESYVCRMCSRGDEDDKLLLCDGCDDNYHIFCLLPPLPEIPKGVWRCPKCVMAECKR
The experiment in a line: BLI; dissociation kobs1 (two phase).

The target in assay [10] is T5, Avitag-PHD1. Nature of the assay: BLI; dissociation kobs2 (two phase).
Assay [11] concerns the target T4, unmodified 187 bp mononucleosome. The experiment in a line: apparent, EMSA.
The target of assay [12] is T3, unmodified 147 bp mononucleosome. The experiment in a line: apparent, EMSA.

Consider ARTKQTARKSTGGKAPRK [H3 (1–18) tail peptide], for which the Kd is over 1450 µM in assay [1] and 140 µM in [2]. Consider ARTK(Me2)QTARKSTGGKAPRK [H3K4me2 (1–18) peptide], for which the Kd in assay [3] was over 900 µM. In turn, ARTK(Me)QTARKSTGGKAPRK [H3K4me1 (1–18) peptide] returned a Kd in assay [4] of 313 µM.

B1: KDM5C^(1–839 ΔAP) (domain or fragment)
chain: MEPGSDDFLPPPECPVFEPSWAEFRDPLGYIAKIRPIAEKSGICKIRPPADWQPPFAVEVDNFRFTPRIQRLNELEAQTRVKGGGGPPEAFGFEQATREYTLQSFGEMADSFKADYFNMPVHMVPTELVEKEFWRLVNSIEEDVTVEYGADIHSKEFGSGFPVSDSKRHLTPEEEEYATSGWNLNVMPVLEQSVLCHINADISGMKVPWLYVGMVFSAFCWHIEDHWSYSINYLHWGEPKTWYGVPSLAAEHLEEVMKKLTPELFDSQPDLLHQLVTLMNPNTLMSHGVPVVRTNQCAGEFVITFPRAYHSGFNQGYNFAEAVNFCTADWLPAGRQCIEHYRRLRRYCVFSHEELICKMAACPEKLDLNLAAAVHKEMFIMVQEERRLRKALLEKGITEAEREAFELLPDDERQCIKCKTTCFLSALACYDCPDGLVCLSHINDLCKCSSSRQYLRYRYTLDELPAMLHKLKVRAESFDTWANKVRVALEVEDGRKRSLEELRALESEARERRFPNSELLQQLKNCLSEAEACVSRALGLVSGQEAG
As to B1, the Kd in assay [5] is over 35 µM; in assay [6], over 42 µM; in assay [7], over 35 µM.

B2: KDM5C1-839 ΔAP A388P (protein)
chain: MEPGSDDFLPPPECPVFEPSWAEFRDPLGYIAKIRPIAEKSGICKIRPPADWQPPFAVEVDNFRFTPRIQRLNELEAQTRVKGGGGPPEAFGFEQPTREYTLQSFGEMADSFKADYFNMPVHMVPTELVEKEFWRLVNSIEEDVTVEYGADIHSKEFGSGFPVSDSKRHLTPEEEEYATSGWNLNVMPVLEQSVLCHINADISGMKVPWLYVGMVFSAFCWHIEDHWSYSINYLHWGEPKTWYGVPSLAAEHLEEVMKKLTPELFDSQPDLLHQLVTLMNPNTLMSHGVPVVRTNQCAGEFVITFPRAYHSGFNQGYNFAEAVNFCTADWLPAGRQCIEHYRRLRRYCVFSHEELICKMAACPEKLDLNLAAAVHKEMFIMVQEERRLRKALLEKGITEAEREAFELLPDDERQCIKCKTTCFLSALACYDCPDGLVCLSHINDLCKCSSSRQYLRYRYTLDELPAMLHKLKVRAESFDTWANKVRVALEVEDGRKRSLEELRALESEARERRFPNSELLQQLKNCLSEAEACVSRALGLVSGQEAG
Take B2: the Kd in assay [8] was over 45 µM. As for Ac-QSVQPSKFNSYGRRAKRLQP-NH2 [KDM5C (199–218) peptide], the dissociation rate constant (koff) was found to be 1.45 s⁻¹ in [9] and 0.02 s⁻¹ in assay [10]. The molecule also returned a Kd in assay [2] of 440 µM.

As to ARTK(Me3)QTARKSTGGKAPRK [H3K4me3 (1–18) peptide], the Kd in assay [3] was over 1500 µM.

B3: KDM5C^1–839 K101A/R107A (domain or fragment)
chain: MEPGSDDFLPPPECPVFEPSWAEFRDPLGYIAKIRPIAEKSGICKIRPPADWQPPFAVEVDNFRFTPRIQRLNELEAQTRVKLNYLDQIAKFWEIQGSSLAIPNVEARILDLYSLSKIVVEEGGYEAICKDRRWARVAQRLNYPPGKNIGSLLRSHYERIVYPYEMYQSGANLVQCNTRPFDNEEKDKEYKPHSIPLRQSVQPSKFNSYGRRAKRLQPDPEPTEEDIEKNPELKKLQIYGAGPKMMGLGLMAKDKTLRKKDKEGPECPPTVVVKEELGGDVKVESTSPKTFLESKEELSHSPEPCTKMTMRLRRNHSNAQFIESYVCRMCSRGDEDDKLLLCDGCDDNYHIFCLLPPLPEIPKGVWRCPKCVMAECKRPPEAFGFEQATREYTLQSFGEMADSFKADYFNMPVHMVPTELVEKEFWRLVNSIEEDVTVEYGADIHSKEFGSGFPVSDSKRHLTPEEEEYATSGWNLNVMPVLEQSVLCHINADISGMKVPWLYVGMVFSAFCWHIEDHWSYSINYLHWGEPKTWYGVPSLAAEHLEEVMKKLTPELFDSQPDLLHQLVTLMNPNTLMSHGVPVVRTNQCAGEFVITFPRAYHSGFNQGYNFAEAVNFCTADWLPAGRQCIEHYRRLRRYCVFSHEELICKMAACPEKLDLNLAAAVHKEMFIMVQEERRLRKALLEKGITEAEREAFELLPDDERQCIKCKTTCFLSALACYDCPDGLVCLSHINDLCKCSSSRQYLRYRYTLDELPAMLHKLKVRAESFDTWANKVRVALEVEDGRKRSLEELRALESEARERRFPNSELLQQLKNCLSEAEACVSRALGLVSGQEAG
Regarding B3, the Kd in assay [11] was 6.3 µM; in assay [7], over 15.1 µM.

B4: KDM5C^1–839 (domain or fragment)
chain: MEPGSDDFLPPPECPVFEPSWAEFRDPLGYIAKIRPIAEKSGICKIRPPADWQPPFAVEVDNFRFTPRIQRLNELEAQTRVKLNYLDQIAKFWEIQGSSLKIPNVERRILDLYSLSKIVVEEGGYEAICKDRRWARVAQRLNYPPGKNIGSLLRSHYERIVYPYEMYQSGANLVQCNTRPFDNEEKDKEYKPHSIPLRQSVQPSKFNSYGRRAKRLQPDPEPTEEDIEKNPELKKLQIYGAGPKMMGLGLMAKDKTLRKKDKEGPECPPTVVVKEELGGDVKVESTSPKTFLESKEELSHSPEPCTKMTMRLRRNHSNAQFIESYVCRMCSRGDEDDKLLLCDGCDDNYHIFCLLPPLPEIPKGVWRCPKCVMAECKRPPEAFGFEQATREYTLQSFGEMADSFKADYFNMPVHMVPTELVEKEFWRLVNSIEEDVTVEYGADIHSKEFGSGFPVSDSKRHLTPEEEEYATSGWNLNVMPVLEQSVLCHINADISGMKVPWLYVGMVFSAFCWHIEDHWSYSINYLHWGEPKTWYGVPSLAAEHLEEVMKKLTPELFDSQPDLLHQLVTLMNPNTLMSHGVPVVRTNQCAGEFVITFPRAYHSGFNQGYNFAEAVNFCTADWLPAGRQCIEHYRRLRRYCVFSHEELICKMAACPEKLDLNLAAAVHKEMFIMVQEERRLRKALLEKGITEAEREAFELLPDDERQCIKCKTTCFLSALACYDCPDGLVCLSHINDLCKCSSSRQYLRYRYTLDELPAMLHKLKVRAESFDTWANKVRVALEVEDGRKRSLEELRALESEARERRFPNSELLQQLKNCLSEAEACVSRALGLVSGQEAG
Turning to B4, the Kd in assay [11] is 4.3 µM. In the case of Ac-KEELSHSPEPCTKMTMRLRR-NH2 [KDM5C (295–314) peptide], the koff worked out at 2.2 s⁻¹ in [9] and 0.04 s⁻¹ in [10].

B5: ARID (KDM5C residues 73–188) (domain or fragment)
chain: NELEAQTRVKLNYLDQIAKFWEIQGSSLKIPNVERRILDLYSLSKIVVEEGGYEAICKDRRWARVAQRLNYPPGKNIGSLLRSHYERIVYPYEMYQSGANLVQCNTRPFDNEEKDK
With B5, the Kd in [11] was determined as 22 µM; in assay [12], 31 µM.

For the origin of these results see PMC10247153 (2022).
